Columns and labels:
[1] = Fluorescence of encapsulated Nile Red; assay type: physicochemical; settings: conjugate 10 μM in TAMg, excitation 535 nm
Description: DNA-conjugates (10 μM) in TAMg buffer (60 μL) were thermally annealed (95 to 4° C., 4 hours). The samples were transferred to glass vials and 1.5 μL of Nile Red solution ([…], acetone) was added, to give a final Nile Red concentration of 2.5 μM. The samples were vortexed briefly, sealed and incubated overnight at room temperature in the absence of light. Fluorescence spectra were recorded at room temperature in a 50 μL quartz cuvette using an excitation wavelength of 535 nm, and monitoring emission between 560 and 750 nm, with excitation and emission slit widths both set at 10 nm.
The sequence-specific self-assembly was also assessed using encapsulation of Nile Red (FIG. 5). In this case a small increase in fluorescence was seen as the block size increased from one to three HE units, consistent with a degree of intramolecular collapse of adjacent HE units, generating progressively larger hydrophobic domains as the block size increases, akin to beads on a string. […] A small, but repeatedly measurable, […] of the maximum emission from the bola-amphiphile (640 nm) with respect to the linear amphiphile (645 nm) was also observed, which is indicative of Nile Red in a more polar environment P. Greenspan, S. D. Fowler, J. Lipid Res. 1985, 26, 781-789). […]

[2] = Dynamic light scattering of DNA-conjugate micelles (hydrodynamic radius, self-assembly); assay type: physicochemical; settings: 25° C.; for self-assembly / scattering by DLS: 10 μM in magnesium containing (TAMg) buffer; for Single-stranded Rh (hydrodynamic radius by DLS): 10 μM in TAMg buffer; for Single-stranded Rh (hydrodynamic radius by DLS) / Double-stranded Rh (hydrodynamic radius by DLS): mean of at least triplicate ± SD
Description: The conjugates described herein can be further characterized with regard to their self-assembly behavior. To probe the self-assembly in solution, dynamic light scattering (DLS) was used to determine the presence, and hydrodynamic radius, of micellar aggregates.
Dynamic Light Scattering (DLS) experiments were carried out using a DynaPro™ Instrument from Wyatt Technology. A cumulants fit model was used to confirm the presence and determine the size of a monomodal population of micellar aggregates. Sterile water and TAMg buffer were filtered using a 0.45 μm nylon syringe filter before use for DLS sample preparation. All measurements were carried out at 25° C.
This size correlates with DNA-based spherical micelles and is consistent with the tight packing of the HE chains in a hydrophobic core with a charged corona made up of DNA.
To investigate the effect of block pattern on the amphiphilic self-assembly in solution, DLS measurements were carried out for the HE/HEG series. Samples were annealed in TAMg buffer at 10 μM, and measured at 25° C. […] Furthermore, the effect of the positioning of the blocks with respect to the oligonucleotide portion also appears to be a major factor in the self-assembly: the terminal HE6 results in micellization, whereas a central HE6 block prevents aggregation.

[3] = tested on: HeLa cells (human cervical cancer); test: MTS cytotoxicity assay; assay type: cell-based; settings: quadruplicate, read-out: inhibitory concentration (IC50), MTS assay
Description: The cytotoxicity of micelles was assessed using the CellTiter96 kit from Promega according to the manufacturer's instructions. Briefly, HeLa cells (human cervical cancer) were seeded at a density of 10000 cells per well in a 96-well plate in DMEM media (Invitrogen) supplemented with 10% FBS and AB/AM. […] Cells were incubated for 24, 48, and 72 h in 5% CO2 at 37° C. After the incubation period, the MTS reagent was added to each well and further incubated for 2 h in 5% CO2 at 37° C. Subsequently, 96-well plates were allowed to equilibrate at room temperature and the absorbance was read at 490 nm using a BioTek Epoch micro-plate reader. All quantifications were done using GraphPad Prism 5 software.

[4] = tested on: primary B-CLL lymphocytes; test: Cleaved caspase-3 apoptosis assay; assay type: cell-based, human; settings: primary patient CLL cells, 24 and 48 h
Description: Primary B-CLL lymphocytes were maintained in RPMI complemented with 10% fetal bovine serum (FBS). BMS2 stromal cell line were maintained in Dulbecco's modified eagle medium (DMEM) supplemented with 10% FBS.BMS2 cells were plate at 70×10^4 cells/ml in 24 well plates before coculture with primary B-CLL lymphocytes and incubate at 37° C., 5% C02.
For apoptosis assays, 3×10^6 B-CLL lymphocytes were plated in the presence or absence of stromal cell (BMS2) and incubate 1 h at 37° C., 5% CO2. Cells were then treated with vehicle, micelle, BKM120, and micelle encapsulated BKM120 for 24 and 48 h.
Cells were harvested, washed with PBS then fixed 10 min with 1% paraformaldehyde. After washing, cells were permeabilized and nonspecific sites blocked in PBS containing 3% FBS and 0.01% triton X100. Cells were then incubated 1 h with an anti-caspase-3 FITC conjugated antibody then analyzed with a FACSCalibur flow cytometer. (See FIG. 16).

[5] = BKM120 loading of HE12-DNA micelles by RP-HPLC and UV-Vis; assay type: physicochemical; settings: HPLC peak areas, standard curves
Description: BKM120 was prepared as a 10 mM working solution in chloroform. Loading of the structures was achieved by adding 20 μL of BKM120 to a glass vial, followed by solvent evaporation in open air to achieve a thin drug film. HE12-DNA micelles were pre-assembled in 1×TAMg (100 μL at […]) and subsequently added to the drug film. The final solution was 100 μL with excess BKM120 (2 mM). The mixture was vortexed heavily to allow re-suspension of the drug molecules, and was incubated overnight at room temperature. Alternatively, drug loading could also be obtained by a different method. […]
RP-HPLC and UV-Vis spectroscopy were used to determine the amount of BKM120 loaded in the DNA micelles, For HPLC, 60 μL of the purified supernatant was injected into a Hamilton PRP-1 5 μm 100 Å 2.1×150 mm column. […] The products were also detected using a drug-only channel at 320 nm (BKM 120 maximum absorption peak).
For UV-Vis spectroscopy experiments, 20 μL of the purified supernatant was mixed with 80 μL of DMSO, and the absorbance (200 nm-500 nm) was measured. The presence of BKM120 was monitored by the absorbance at 320 nm using a Biotek Synergy HT well-plate spectrometer. […]
The amount of incorporated BKM 120 was calculated by measuring HPLC peak areas of BKM 120 and DNA. […]

[6] = tested on: complement strand (Acomp); test: Thermal denaturation of duplexes with complement strand by UV absorption; native PAGE; assay type: physicochemical; settings: between DNA and HE12-DNA, duplex with Acomp 2.5 μM in TAMg
Description: The hybridization of the DNA amphiphiles to their complement strands was confirmed by measurement of the thermal denaturation of the duplexes by UV absorption. For each experiment equimolar amounts of DNA amphiphile and complement strand (Acomp, see Table 1) were combined in TAMg buffer to give a final volume of 150 μL with a duplex concentration of 2.5 μM. Samples were thermally annealed (95 to 4° C., 4 hours) before transfer to a quartz cuvette. Absorbance at 260 nm was monitored over the appropriate temperature range. Typical sigmoidal melting curves were obtained for the hybridization of the complementary strand Acomp to DNA control, discrete (HE-HEG)6-DNA and HE12-DNA micelles. […] Native Polyacrylamide Gel Electrophoresis (PAGE) was carried out at room temperature for 2 hours at a constant voltage of 250V. Sample loading was 0.01 OD260 DNA per lane. Single-stranded samples were annealed (95 to 4° C., 4 hours) prior to loading on the gel to promote uniform assembly. Double-stranded samples were similarly annealed (with Acomp, see Table 1) to provide 25 μL of 10 μM duplex in 1×TAMg. The DNA bands were visualized by incubation with GelRedTM. Thermal denaturation and gel electrophoresis concluded that all of the HEx-DNA molecules retained their ability to hybridize to a complementary DNA strand, highlighting the orthogonal nature of these differing modes of intermolecular self-assembly. […]

Row | Compound | self-assembly / scattering by DLS [2] | Single-stranded Rh (hydrodynamic radius by DLS) [2] [nm] | Double-stranded Rh (hydrodynamic radius by DLS) [2] [nm] | other results
1 | HEG6-HE6-DNA: HHHHHHDDDDDDTTTTTCAGTTGACCATATA; D dodecane-diol, H hexaethyloxy glycol residues (dodecane-diol and hexaethylene glycol units conjugated, chemistry not fully specified) |  |  |  | maximum emission of encapsulated Nile Red [1]: 640 nm
2 | (HE3-HEG3)2-DNA: DDDHHHDDDHHHTTTTTCAGTTGACCATATA; D dodecane-diol, H hexaethyloxy glycol residues (dodecane-diol and hexaethylene glycol units conjugated, chemistry not fully specified) | did not exhibit self-assembly |  |  | 
3 | HE6-DNA: DDDDDDTTTTTCAGTTGACCATATA; D = residue from DMT-dodecane-diol amidite (dodecane-diol (HE) units conjugated, chemistry not fully specified) | strong scattering | 6.5±0.4 | 5.6 ± 0.1 | Single-stranded Rh (hydrodynamic radius by DLS) ([2]; listed as HE6): 6.5 ± 0.4 nm
4 | (HE2-HEG2)3-DNA: DDHHDDHHDDHHTTTTTCAGTTGACCATATA; D dodecane-diol, H hexaethyloxy glycol residues (dodecane-diol and hexaethylene glycol units conjugated, chemistry not fully specified) | did not exhibit self-assembly |  |  | 
5 | (HE-HEG)6-DNA: DHDHDHDHDHDHTTTTTCAGTTGACCATATA; D dodecane-diol, H hexaethyloxy glycol residues (dodecane-diol and hexaethylene glycol units conjugated, chemistry not fully specified) | did not exhibit self-assembly |  |  | 
6 | Nc1cc(C(F)(F)F)c(-c2cc(N3CCOCC3)nc(N3CCOCC3)n2)cn1 [BKM120] |  |  |  | IC50 [3]: 2 µM; amount of caspase (cleaved caspase-3) [4]: same amount
7 | HE6-HEG6-DNA: DDDDDDHHHHHHTTTTTCAGTTGACCATATA; D dodecane-diol, H hexaethyloxy glycol residues (dodecane-diol and hexaethylene glycol units conjugated, chemistry not fully specified) | strong scattering | 9.7±0.9 | 10.0 ± 0.2 | maximum emission of encapsulated Nile Red [1]: 645 nm; Single-stranded Rh (hydrodynamic radius by DLS) ([2]; listed as HE6-HEG6): 9.7 ± 0.1 nm
8 | HE12-DNA: DDDDDDDDDDDDTTTTTCAGTTGACCATATA; D = residue from DMT-dodecane-diol amidite (dodecane-diol (HE) units conjugated, chemistry not fully specified) |  | 11.3±0.1 | 11.3 ± 0.1 | BKM120 molecules incorporated per HE12-DNA conjugate unit [5]: 8; Single-stranded Rh (hydrodynamic radius by DLS) ([2]; listed as HE12): 11.3 ± 0.7 nm; change in melting temperature [6]: 3 °C

— patent publication US20190060324A1, “POLYNUCLEOTIDE-POLY(DIOL) CONJUGATES, PROCESS OF PREPARATION AND USES THEREOF” (THE ROYAL INSTITUTION FOR THE ADVANCEMENT OF …, priority 2014, published 2019)
